Source: PMC4115230, “Lipid–Protein Nanodiscs Offer New Perspectives for Structural and Functional Studies of Water-Soluble Membrane-Active Peptides” (Acta Naturae, 2014)

Assays:
[1] = molecular target: T1, Membrane scaffold protein (MSP): recombinant 44-243 fragment of human apolipoprotein A1 with an N-terminal … (human, Printed limits 44-243 are in mature numbering: mature apoA-I is precursor 25-267 (243 aa), so residue 243 is the C-terminus and the offset is +24. N-terminal His6 tag omitted. Each nanodisc contains t); assay: NMR titration; VSTx1 sample (20 μM by the legend of Fig. 2, 10 mM Tris-Ac, pH 7.0, no added salt) titrated with a lipid-free MSP solution (0.7 mM); 1D 1H-NMR signal intensity taken as free peptide; 40-45 °C; fits to partition equilibrium (eq. 1) and Langmuir isotherm (eq. 2); MSP concentration and n counted per two MSP molecules (MSP×2); settings: both partners purified
T1 sequence (chain, as listed by the source): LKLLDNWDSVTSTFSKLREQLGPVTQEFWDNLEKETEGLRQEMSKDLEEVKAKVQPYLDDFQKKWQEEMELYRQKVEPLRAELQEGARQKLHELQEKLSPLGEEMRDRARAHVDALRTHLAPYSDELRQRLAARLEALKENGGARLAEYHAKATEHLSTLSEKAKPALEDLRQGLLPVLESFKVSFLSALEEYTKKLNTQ

[2] = molecular target: T1, Membrane scaffold protein (MSP): …; assay: as above; settings: both partners purified; remark: listed apart in the source

B1: VSTx1, voltage sensor toxin from Grammostola spatulata spider venom (recombinant analogue with additional N-terminal Gly-Ser) (peptide)
chain: GSECGKFMWKCKNSNDCCKDLVCSSRWKWCVLASPF
notes: additional N-terminal Gly-Ser residues left by the hydrolysis with thrombin; VSTx1 toxin from Grammostola spatulata spider venom, 34 AA, 4010 Da; three disulfide bonds (cysteine knot); The gene was built from synthetic oligonucleotides; also called VSTx1 toxin; recombinant VSTx1 analogue; not shown: thioredoxin (TRX), N-terminal, cleaved
Ka [1]: 50000 ± 0.02 M⁻¹ | stoichiometry N [1]: 3.2 ± 0.9 | stoichiometry N [2]: 1.6
